The RNAGym collection of RNA variant scans (doi:10.7554/elife.90254)

B1: OR4K15 (parent)
chain: GUUAACGGUCAUAGGCCAUGGAAACUAGGAGCACCAUUUCGCUGCCAGUGAAGAAAUGAACAAAGAAAAUCUGGGCCAGGCAGGCAUCAAAAGAAAUAGUCUUGCGCUCAACCAGAAAGUCUGUAAUCAUUUUAAGGGUA

Variants of: B1
Test: self-cleavage, relative activity (ratio to wild type); higher = more cleavage; in vitro, sequencing; the parent is a self-cleaving ribozyme

Variant	self-cleavage
U19C U102G	0.78
U19C U102C	2.32
A23G A51U	1.22
U19C G48A	1.61
U19C C76U	0.14
U19C A60G	1.23
A22U A56G	1.16
A23G A82G	0.57
U19G A24G	1.16
A22G U49G	1.39
A22G U49C	0.55
A22U A91G	0.68
A22U G53A	1.47
A22G G136A	0.6
A22U A36G	1.48
A22U A36U	1.53
U19G A23G	0.83
G21A U127C	1.32
U19C C40U	1.67
U19C U108C	0.02
U19C U108A	0.03
A22G U124G	0.96
G20U U70C	0.6
U19C U133C	2.01

Variant	self-cleavage
A22U A94G	1.84
A22G C46U	1.36
G21U U37A	1.06
G21A A90G	0.38
G21A A60G	1.14
U19C U39A	2.15
G20U U72C	0.14
U19C C61U	1.56
G20A A118G	0.79
A22G A68G	1.31
G21C U108C	0.02
A22U U43C	1.81
A22U U43A	2.1
G21U U87C	1.55
U19C G137A	0.95
U19G A140G	1.51
A22G G44A	1.2
G20A A56G	1.66
G21U G65A	1.96
A22G U97G	1.42
A23C A27G	0.28
A22G A126G	0.85
A22G A126U	0.92
U19C U38C	1.22

Variant	self-cleavage
A22U U132A	1.7
G21U U122A	1.42
A22G U102G	1.05
A22G U102C	1.56
A22G U102A	0.32
A22G A86G	1.31
A23G A90G	0.8
A23G A98U	0.92
A22G U127G	1.34
A22G U127A	2.2
A22G U127C	0.43
A22G A51G	1.22
A22U A95G	0.94
A22G A129G	0.61
A22G A129U	0.78
A22U U72C	0.04
A22U U72A	0.21
G20U U39A	1.57
A23G A95U	2.26
G21A A95G	2.07
G20A A24G	0.1
U19C G93U	1.5
G20A A64G	1.49
U19G A64G	1.49

Variant	self-cleavage
A22G U39A	1.39
A22G U39C	1.67
A22U A135G	0.4
G21A A78U	0.86
A22U	1.3
A22G	1.09
A22C	1.11
U19C A135U	1.5
U19C A135G	2.08
A22G A118U	1.05
A22U U57C	0.84
A22G G31A	1.19
A22G G31U	0.75
A22G A33U	1.4
A22G A33G	0.98
G20U A47G	1.08
A22U A62U	1.58
A22G U37A	2.01
A22G U37G	0.8
A23G A54G	0.6
A23G A69G	0.91
A22G A59U	1.11
A22G A59C	1.17
U19C U49C	1.6

Variant	self-cleavage
U19C U49A	1.38
A22U A116G	0.96
G20A A95U	1.89
A22C A89C	1.57
A22G U139C	1.24
A22G U139A	1.14
G21A U70C	1.39
U19C U72C	0.25
U19C C113U	0.08
A22G A134U	1.05
A22U U39C	0.34
A23G A62U	1.09
A23G A62G	0.87
A22U A96G	1.57
A22U A96U	1.54
A22U A67G	1.87
A22G C81U	0.53
U19C A114G	0.39
U19C A114U	0.11
U19C A86U	1.8
A22G G53C	1.81
U19C U124C	0.87
G21A U38A	1.28
A22U A23G	1.74

Variant	self-cleavage
A22G A56G	1.01
A22G U131A	1.53
A22C U127C	1.48
A22G A67C	1.6
G21A A33U	2.16
A22G A60G	0.94
A22C A94U	2.06
A23C A30G	0.62
U19C A62G	0.83
U19C A62C	1.65
A23C A62G	0.57
U19C A55U	1.69
A22U A24G	1.01
U19C A94G	1.53
G21A A135C	1.25
U19C A91U	1.37
A23G A92G	1.17
U19G G115A	0.38
A22G A90G	1.12
A22U U108C	0.03
A22U U49A	1.78
A22G A52U	1.02
A22G A98G	0.88
U19C G74C	0.18

Variant	self-cleavage
G21U A62G	1.54
A23C U130C	0.85
A23G A30U	0.82
A23G A30G	1.1
A22G A23G	1.09
A22G A94C	1.21
A22G A94G	0.92
A23G A94C	1.14
A23G A94G	1.42
A22G G58A	0.55
U19C U97C	1.5
U19C U97A	1.34
A23C C76A	0.13
A22U A90G	0.91
G21A A116G	0.46
A22G A110G	0.08
A22G A110C	0.3
A22G A110U	0.8
A22U A54G	1.46
G21U A82G	0.98
U19G A69U	0.96
A22G A63U	1.15
A22U A63U	2.2
A22U A63G	1.45

Variant	self-cleavage
A22U A60G	1.29
A23G A110G	0.11
G21A G138A	0.84
U19C A111G	0.03
A22G U57C	0.91
A23G A96U	1.17
U19C A59G	1.55
U19C A59U	0.81
A22G A82U	0.36
G20U	1.53
G20C	1.88
G20A	1.55
G21A A114U	0.05
A23C A96G	1.33
U19G C105G	0.05
G21A U122G	2.56
G20A A66G	1.21
A23C G83A	2.28
A22U A126C	1.34
U19C U132C	1.24
G20A U102A	0.58
U19C A140U	1.21
G21A A98U	2.32
A22G C109U	0

Variant	self-cleavage
A22G U100A	0.54
A22G U100C	1.69
G21A A69U	1.48
A22G U132G	1.75
G20A U49A	1.67
A22C U70C	1.25
A22G C34U	1.33
A23G A59G	1.11
A23G A27U	1.29
A22U C121A	2.6
G21A G106A	0.02
G21A A64U	1.5
A22U U97C	0.69
G21U A90G	1.16
A22U A51G	1.63
U19C G31U	1.29
U19C G31A	0.83
A23G A91C	1.49
A23G A91G	0.7
G20A A27C	1.93
U19G	1.18
A22C U38C	2.55
A22C A63U	1.85
U19C C121A	2.88

Variant	self-cleavage
A22U A30G	1.13
A22G A114U	0.08
A23G A24G	1.03
U19C A117C	0.71
U19C A117U	0.58
U19C A96C	0.69
U19C A96G	1.8
U19C A96U	1.51
U19C A82U	0.21
G20U A94U	2.23
A22G A36U	0.87
A22U G138U	2.01
A23G A64U	1.2
A23G A64G	0.58
A22G A54C	1.7
A22G A54G	0.84
A22U U100C	2.44
U19C G119A	2.13
A22G A140U	0.8
A22G A140G	1.85
U19C U70C	0.7
U19C U70A	1.06
U19C G75A	0.23
U19C G75C	0.17

Variant	self-cleavage
A22G U38C	1.62
G21A A140G	1.48
A22U C25U	0.77
A22G A96G	1.28
A22G A96C	1.58
A22U G123U	1.96
G21U U108C	0.02
G20A A117G	0.65
A22G A89C	1.28
A23G A60G	0.97
G21U A22G	1.71
G21A A125G	0.73
A22C A96G	2.53
U19C C85G	1.02
G21A A67G	1.78
A22U A111G	0.02
U19C A90G	1.39
U19C A90U	1.49
A22U A27U	2.02
A22G A111G	0.05
A22G A111U	0.04
A22U U120A	1.95
A22U U120C	0.48
G20A A69G	1

Variant	self-cleavage
A23G A89G	1.32
U19C U37C	1.5
G20U U122A	2.45
A22C U131G	0.94
A22G A27G	1.04
U19C A64U	1.45
U19C A64G	1.09
A22U A78U	0.33
A22G U108A	0.01
U19C U103C	0.66
U19G A33G	0.96
A22U A89G	1.31
A22G U103A	0.41
A22G U103G	0.05
U19C U43A	2.04
A22U A66G	1.5
A23G A67G	1.11
A22G U70C	0.91
U19C U120C	0.77
G21A C85G	0.64
A22G A125G	0.57
U19C G83A	1.68
G20U U37C	1.37
A22G A24U	1.27

Variant	self-cleavage
A22G A24G	1
U19C A125U	2.21
A22G C32U	0.91
A22U A117G	1.06
U19C A129U	1.39
U19C A126G	1.48
A22U U87A	1.53
A22U U87C	0.88
G21A A27U	1.32
G21A A30G	1.51
G21A A51G	1.66
U19C G44A	0.78
U19C A110G	0.08
U19C A110C	0.16
U19G A110G	0.2
G21A A94G	1.81
A22G C76U	0.19
U19C A98G	0.25
G20A A91U	2.07
A22G A116U	0.35
A23G A36C	1.41
A23G A36G	1.43
G21U U102C	2.03
A22U A129C	1.58

Variant	self-cleavage
A23G A55G	1.27
U19C A92G	1.53
U19C U26C	1.24
A22U A69U	2.67
A22U A69C	0.47
U19C A118U	0.77
U19C A118C	1.15
A22G A69C	0.68
A22G U120A	1.22
U19C A66U	0.38
U19C A66G	1.62
U19C A78G	0.29
U19G A67G	1.1
G21A A68G	1.55
A22U A68G	0.93
A22G G48A	1.56
U19C A67U	1.67
U19C A67G	1.04
A23G A86G	0.99
A23G A86U	1.25
G20A A92U	0.79
G20A A92G	2.46
